Reference: PMC6222600, “Application of Neurokinin-1 Receptor in Targeted Strategies for Glioma Treatment. Part I: Synthesis and Evaluation of Substance P Fragments Labeled with ^99mTc and ^177Lu as Potential Receptor Radiopharmaceuticals” (Molecules : A Journal of Synthetic Chemistry and Natural …, 2018)
Where two headings read alike, the source gives them in different places. Where a SMILES comes first, the peptide text is derived from it. Where no end group is shown, it is not given here. [ ]: non-standard residue; d: D form. The star is where a group is joined. DOTA = O=C(O)CN1CCN(CC(=O)O)CCN(CC(=O)*)CCN(CC(=O)O)CC1; Met(O2) = CS(=O)(=O)CC[C@H](N)C(=O)O; NS3/CN = chelator carrying 99mTc; 2Thi = N[C@@H](Cc1cccs1)C(=O)O

B1: NK-1 receptor (protein)
chain: MDNVLPVDSDLSPNISTNTSEPNQFVQPAWQIVLWAAAYTVIVVTSVVGNVVVMWIILAHKRMRTVTNYFLVNLAFAEASMAAFNTVVNFTYAVHNEWYYGLFYCKFHNFFPIAAVFASIYSMTAVAFDRYMAIIHPLQPRLSATATKVVICVIWVLALLLAFPQGYYSTTETMPSRVVCMIEWPEHPNKIYEKVYHICVTVLIYFLPLLVIGYAYTVVGITLWASEIPGDSSDRYHEQVSAKRKVVKMMIVVVCTFAICWLPFHIFFLLPYINPDLYLKKFIQQVYLAIMWLAMSSTMYNPIIYCCLNDRFRLGFKHAFRCCPFISAGDYEGLEMKSTRYLQTQGSVYKVSRLETTISTVVGAHEEEPEDGPKATPSSLDLTSNCSSRSDSKTMTESFSFSSNVLS

Experiments:
[1] = Lipophilicity (logP), partition in n-octanol/PBS (pH 7.4); type: physicochemical
Experimental: The partition coefficient was measured for each compound in a biphasic system of n-octanol/PBS (pH 7.4). The biphasic mixture was shaken (vortex, 1 min) and then centrifuged (14,000 rpm, 5 min) before the organic (n-octanol) and aqueous (PBS, pH 7.4) phases were separated. The activity of each phase (corresponding to the content of radiobioconjugate) was determined by measuring γ-radiation, using a well-type NaI(Tl) detector. P was calculated as the ratio of activity in the organic versus aqueous phases (as an average value from at least three independent measurements). Immediately after the γ-radiation measurements, the aqueous phase was analyzed by HPLC (system 2) to determine whether the tested radiobioconjugate existed in the liquid phase in an unchanged form.

[2] = type: in vitro ADME, human
Experimental: Stability tests of 2a–e compounds in CSF and HS were performed similarly to the previous one. The solution (0.1 mL) of isolated 2a–e radiobioconjugate in 0.1 M PBS buffer (pH 7.4), was added to 0.9 mL of CSF or HS and incubated at 37 °C. After specific time intervals (1, 2, 4 and 24 h), a small sample (0.1–0.2 mL) of the mixture was taken, mixed with ethanol (0.3–0.5 mL) and shaken vigorously to precipitate protein components as well as part of the tested radiobioconjugate bound to protein components. The sample was then centrifuged (14,000 rpm, 5 min) and the supernatant separated. The radioactivities of both supernatant and precipitate were measured using the well-type NaI(Tl) detector (Institute of Nuclear Chemistry and Technology, Warsaw, Poland). […]

[3] = target: T1, NK-1 receptors expressed on glioblastoma cells (U373 MG) (Homo sapiens, UniProt P25103); assay: Saturation binding studies on U373 MG cells; conditions: 37 °C, 1.5 h, Scatchard analysis, mean ± SD of three experiments
T1 construct: host or cells: U373 MG (Uppsala) human glioblastoma astrocytoma cells
Experimental: To determine the affinity of selected radiobioconjugates: […] One day before the experiment, 8 × 10^5 cells/well were seeded in six-well plates. To determine total binding, different concentrations of peptides (15.3 pM to 100 nM) were added to the cells and incubated at 37 °C for 1.5 h. Cellular uptake was stopped by aspirating the reaction supernatant, followed by washing twice with 1 mL of cold PBS. Finally, the cells were lysed using 1 M NaOH to detach them from the well plates. To determine nonspecific binding, the cells were incubated with 1000-fold excess of unlabelled peptides. The radioactivities of collected samples with cell pellets and supernatants were measured using Perkin Elmer automatic γ-counter. The specific binding was obtained by subtracting nonspecific binding from total binding. For estimating the receptor density (Bmax) and the dissociation constant (Kd) of the receptor for the studied radiobioconjugates, the Scatchard analysis method was used. Results are means ±SD of three individual experiments.

[4] = target: [177Lu]DOTA-Substance P(4-11) 4-11 (Homo sapiens, UniProt P20366, 177Lu-DOTA); assay: radioligand binding
[5] = target: [177Lu]DOTA-[Thi8,Met(O2)11]Substance P(5-11) 5-11 (Homo sapiens, UniProt P20366, 177Lu-DOTA, Thi8, Met(O2)11); assay: radioligand binding
[6] = target: [177Lu]DOTA-[Thi8,Met(O2)11]Substance P(1-11) 1-11 (Homo sapiens, UniProt P20366, 177Lu-DOTA, Thi8, Met(O2)11); assay: radioligand binding

Molecule | logP ([1]; pH 7.4) | Enzymatic biomolecule biodegradation in human serum (ITLC) [2] | Kd [3] [nM] | further results
[C-]#[N+]CCCC(=O)N[C@@H](CCCNC(=N)N)C(=O)N1CCC[C@H]1C(=O)N[C@@H](CCCCN)C(=O)N1CCC[C@H]1C(=O)N[C@@H](CCC(N)=O)C(=O)N[C@@H](CCC(N)=O)C(=O)N[C@@H](Cc1ccccc1)C(=O)N[C@@H](Cc1ccccc1)C(=O)NCC(=O)N[C@@H](CC(C)C)C(=O)N[C@@H](CCSC)C(N)=O [1a, [^99mTc]NS3/CN-SP(1–11), metal not drawn] | – | – | – | logP ([1]; n-octanol/PBS pH 7.4, [99mTc]NS3/CN-SP radiobioconjugates, read-out: logP): 0.26 ± 0.05
CSCC[C@H](NC(=O)[C@H](CC(C)C)NC(=O)CNC(=O)[C@H](Cc1ccccc1)NC(=O)[C@H](Cc1ccccc1)NC(=O)[C@H](CCC(N)=O)NC(=O)[C@H](CCC(N)=O)NC(=O)[C@@H]1CCCN1C(=O)[C@H](CCCCN)NC(=O)[C@@H]1CCCN1C(=O)[C@H](CCCNC(=N)N)NC(=O)CN1CCN(CC(=O)O)CCN(CC(=O)O)CCN(CC(=O)O)CC1)C(N)=O [2a, [^177Lu]DOTA-SP(1–11), metal not drawn] | -5.12 ± 0.06 | only partial | – | –
CC(C)C[C@H](NC(=O)CNC(=O)[C@H](Cc1cccs1)NC(=O)[C@H](Cc1ccccc1)NC(=O)[C@H](CCC(N)=O)NC(=O)[C@H](CCC(N)=O)NC(=O)[C@@H]1CCCN1C(=O)[C@H](CCCCN)NC(=O)[C@@H]1CCCN1C(=O)[C@H](CCCNC(=N)N)NC(=O)CN1CCN(CC(=O)O)CCN(CC(=O)O)CCN(CC(=O)O)CC1)C(=O)N[C@@H](CCS(C)(=O)=O)C(N)=O [2b, [^177Lu]DOTA-[Thi^8,Met(O2)^11]SP(1–11), metal not drawn] | -5.28 ± 0.02 | only partial | 11.1 ± 2.7 | –
CSCC[C@H](NC(=O)[C@H](CC(C)C)NC(=O)CNC(=O)[C@H](Cc1ccccc1)NC(=O)[C@H](Cc1ccccc1)NC(=O)[C@H](CCC(N)=O)NC(=O)[C@H](CCC(N)=O)NC(=O)[C@@H]1CCCN1C(=O)CN1CCN(CC(=O)O)CCN(CC(=O)O)CCN(CC(=O)O)CC1)C(N)=O [2c, [^177Lu]DOTA-SP(4–11), metal not drawn] | -2.93 ± 0.01 | only partial | 13.3 ± 1.6 | –
CSCC[C@H](NC(=O)[C@H](CC(C)C)NC(=O)CNC(=O)[C@H](Cc1ccccc1)NC(=O)[C@H](Cc1ccccc1)NC(=O)[C@H](CCC(N)=O)NC(=O)[C@H](CCC(N)=O)NC(=O)CN1CCN(CC(=O)O)CCN(CC(=O)O)CCN(CC(=O)O)CC1)C(N)=O [2d, [^177Lu]DOTA-SP(5–11), metal not drawn] ({DOTA}-QQFFGLM-NH2) | -2.68 ± 0.01 | virtually all of the radiobiomolecule that was deposited onto the strip was degraded enzymatically | – | –
CC(C)C[C@H](NC(=O)CNC(=O)[C@H](Cc1cccs1)NC(=O)[C@H](Cc1ccccc1)NC(=O)[C@H](CCC(N)=O)NC(=O)[C@H](CCC(N)=O)NC(=O)CN1CCN(CC(=O)O)CCN(CC(=O)O)CCN(CC(=O)O)CC1)C(=O)N[C@@H](CCS(C)(=O)=O)C(N)=O [2e, [^177Lu]DOTA-[Thi^8,Met(O2)^11]SP(5–11), metal not drawn] ({DOTA}-QQF[2Thi]GL[Met(O2)]-NH2) | -3.94 ± 0.01 | virtually all of the radiobiomolecule that was deposited onto the strip was degraded enzymatically | 48.7 ± 5.1 | –
[^99mTc]NS3/CN-SP(4–11) ({NS3/CN}-PQQFFGLM; ends and bridges not checked; also: 99mTc complex of NS3/CN chelate; UniProt P20366 61-68, looked up, fragment) [1c, SP(4–11) labelled with technetium-99m via NS3/CN-BFCA] | 0.09 ± 0.02 | – | – | –
[^99mTc]NS3/CN-SP(5–11) ({NS3/CN}-QQFFGLM; ends and bridges not checked; also: 99mTc complex of NS3/CN chelate; UniProt P20366 62-68, looked up, fragment) [1d, SP(5–11) labelled with technetium-99m via NS3/CN-BFCA] | 1.14 ± 0.01 | – | – | –
[^99mTc]NS3/CN-[Thi^8,Met(O2)^11]SP(5–11) [1e] | 0.64 ± 0.02 | – | – | –
B1 | – | – | – | Kd [4]: 13.3 nM; Kd [5]: 48.7 nM; Kd [6]: 11.1 nM
